Test: label from the status in PepcDB records

Sequence	protein production
MGSSLSNLNDGTNGLAMGPGLGDIPESCVACVFMYLTPPEICNLAGLNRSFRGAASSDSVWEKKLPENYQDLLDLLPPERYHSLSKKDIFAVLSRPIPFDDDNKEVWIDRVTGRVCMAISARGMSITGIEDRRYWNWIPTEESRFHVVAYLQQIWWFEVDGTVRFHLPPGVYSLSFRIHLGRFTKRLGRRVCHFELTHGWDLKPVRFSLSTSDGQEASCEYYLDDVERNEALGKHKRGYWIEYRVGEFIVNGSEPSTEIQWSMKQIDCTHSKGGLCVDSVFINPIGDVKEHKRKAVLKEA	failed
MGSSMEEKVVAVIMVGGPTKGTRFRPLSLNIPKPLFPIAGQPMVHHPISACKRIPNLAQIYLVGFYEEREFALYVSAISNELKVPVRYLREDKPHGSAGGLYHFRNLIMEDSPSHIFLLNCDVCCSFPLPKMLEAHRGYGGIGTLLVIKVSPESASQFGELVADPVTNELLHYTEKPETFVSDRINCGVYVFTPEIFNAIGDVSTQRKDRATLKRVSSFEALQPATRIPTDFVRLDQDILSPLAGKKRLYTYETMDFWEQIKSPGMSLRCSGLYLSQFRLTSPQLLASGDGTRSAIVIGDVYIHPSAKVHPTAKIGPNVSISANARVGPGVRLMSCIILDDVEIMENAVVTNAIVGWKSSIGRWSRVQAEGVYNSKLGVTILGDSVAVEDEVVVTSSIVLPNKTLNVSVQDEIIL	failed
MGTAWNYPDLGSKNPMSGMVQSETAVIGGAGNVGMGIVAALLDAGMPTVVIGRDAAKLDALRAQHGHSPLLDIVQGSVADDASARRLATELAQRHRPLGAVIASLGSPPKAGRLLDRPVAVLRRRLERDVLPHLAAARHLLPLLAEADGGGRYLLLGSPCALRAWSAHGDRSVAASATRMLAQVLHEEAKPLGVRVQLLSVEQPVCTPGRAKDACPEWIRAVDVGRAAVSLIAGPGQPGQAIVTVSRRPHAAPSASRLAGLHVSIPTREISP	failed
MGTGEKTLKSFQLHRKQSVKVKDVPKGCLAIKVGSQGEEQQRFIVPVLYFNHPLFMQLLKEAEDEYGFDQKGTITIPCHVEEFRYVQALIDGERSVYNGNNHHHRHGGRDQYHHLVGCFRA	failed
MGTIGAAGCTVNRFAVALMPDSGGHPRKPIAGVDAPPPHLLLVARRMTRPGEHMALTTYTPVITVFAAGREWTLERAADLQTLWDNMVEADFGDDERLPYWTELWPSSLVLADWLHDNAGRIRGRTCLDMGCGLGLCSLVGQWLGARVTGMDYEPEALFHARRNAERNRVPQPLWTVMDWRAPAVRRHAADLVWGGDIMYERRFVTPVLDFLDHVLAPCGAAWVAEPGRTVYNHFRETLDARGWHARRVLSSETASLYEQPESVTVHLWEITRLEHHHHHH	failed
MGTITGEFTEHSAEAIAAMLSYIVQTEYEKKQLAKDTLQKYEEVVFLSQFANAVATCTGLQELIEVIRAEIRQVISVDEIFLYLYDQSQDSLTPLLYKTEESLQNFKAIEKIVERVLKLNQVEVIDDIQNDQDYLNQPSKIRSLLCYSLTVQNSIIGVLGLAHYQVKHFDSSDLNLFSTLTGQVAAAIRTAQYYETIKNYSQTLEIRLEHHHHHH	failed
MGTKKNFVLDTNVILHDYNCLKNFQENDIYLPIVVLEELDKFKKGNEQINYNAREFVRELDLITDDSLFTHGAPLGEGLGKLFIVTGDSEAPKVHESFPARKPDHQILAVAEYLARKYPKMKNILVTKDVNLRMKARSIGILCEDYITDKVVNVDIFE	failed
MGTPGEGLGRCSHALIRGVPESLASGEGAGAGLPALDLAKAQREHGVLGGKLRQRLGLQLLELPPEESLPLGPLLGDTAVIQGDTALITRPWSPARRPEVDGVRKALQDLGLRIVEIGDENATLDGTDVLFTGREFFVGLSKWTNHRGAEIVADTFRDFAVSTVPVSGPSHLRGLCGMGGPRTVVAGSSDAAQKAVRAMAVLTDHPYASLTLPDDAAADCLFLRPGLPGVPPFLLHRGGGDLPNSQEALQKLSDVTLVPVSCSELEKAGAGLSSLCLVLSTRPHS	failed
MGTPVVWEGNIGNPPEHKSFPNGNNEPRQLLRLNVMFDNSIPDGSGGYKDRGGFWANVEWWHPDAERFAQLFSKGMRVVVTGRAIMDTWKDKETGDDVWALKVEANRVAILPHRVNQVTMTQSNNTGQRQNAQQNNRPERQQNSAQQPGQHTDDLSHYGNGFDDDIPVLEHHHHHH	not failed
MGTRGNEEEEDWFSDAREEVSSVSDCNSEVADDFVQATGDLDLWTMNPESVTNRRQKFFQSMGFSFKKRDFDLDLDLLGDSSSDHIPVSKQLTSVSETDHEEEEKEEKLLRNESTSSGSSVSSFSTASLAEAFSFRGSFQNRAKNIDDQILLTRDYSSNSSSIAEGLSESDSSRFDSYGDLPNSPMSRYEESPKKGAKGWLKKLGVLTHVLDKTEECTDGESTRSSIRRQLTRVQSFKKQFKELSSLCVGQEFSAHDGSIVVMKFSHDGKYLASAGEDCVVRVWNIIEDERRDNEFEVAESDSSCVYFGMNDKSQIEPLKTENEKIEKSRGLLRKKSESTCAVLPSKVFSISETPQHEFRGHTGEILDLSWSEKGFLLSSSVDETVRLWRVGSSDECIRVFSHKSFVTCVAFNPVDDNYFISGSIDGKVRIWDVSQFRVVDYTDIRQIVTALCYRPDGKGAVVGSMTGECRFYHTTDNQLQLDRDISLHGKKKVPNKRITGFQFFPGDSDKVMVTSADSQIRIICGVDTICKLKKASSLRTTLMSPTFASFTSDGKHIVSTIEESGIHVWDFSQPNKKASSQKPKTIRSYEGFLSRNVSVAIPWLGQGKEDSIIADLEKSFAHFPVPLDYFSPMKGATTWPEEKLGVVAGTAAAAVSATVSSRSKLRLLKSVCQNVHGSTPHLWGLVIVTATWDGSIRVFHNYGLPIRV	failed
MGTVMDVLKGDNRFSMLVAAIQSAGLTETLNREGVYTVFAPTNEAFRALPPRERSRLLGDAKELANILKYHIGDEILVSGGIGALVRLKSLQGDKLEVSLKNNVVSVNKEPVAEPDIMATNGVVHVITNVLQP	not failed
MGVALRPLLAEYKESPGWDGLGGIAAVDAFNALYQFLSGIRQADGAPLMDGQGRITSHLSGLLFRNANLIEKNITPIYVFDGKPPVFKASTLSKRREVRENAADAWEKALKEGDEESARKYAMASSKIDAFIIDSSKELLSALGIAWIQAPEEGEAQSSFMTKNGDVTYAVSQDYDSLLFGAPDLVRNITVSGKKRIRGKVLSVYPERLRLEEVLTGLSVTQEELIQIALLIGTDYNSGVPGVGPKTAVKIVREGKFYDRIGESENAAEPDQLIGYFMDPPVERSYNIESRSPDPDRVIDLLCGEHGFTQERVEAGLERLGAKKGQATLDAWF	failed
MGVARPNFFIVGAAKCGTSSLDRYLSQHPDIYIPPKKEAHFFSIPDFPERFTGPGDEGMNLYTIRDEDAYMRLFDGVRGERAVGEASVFYLFYPGTAQRMYDAYPDAKILIMLRNPVDRAFSAYMHLVRDERETLSFRESLAKEEERIRQHYEPLWYYRAVGLYAAQVKRYLDVFGREQVKVILFEEFARDPVQVVRDCCAFLGVSTDFVPDTSIRHNESGVPKSRSLYNFIAKPNALKEIVKPFIPAAVRERLGNRAKSMVLGRMEMEPDLREELTAFFAPDVARLEALIHRDLSAWRRPARAAGSQ	not failed
MGVFDKFLDIMKLNDDEYDDDDFYDDDFEDDDFDEKPHRSIFGNKKSRSDDFDDFDMDEDKHLAPSSGNKVTPMRQPAARRGVNMEVCVVKPTSVDDSREITETLLAGRTVILNLEGMDLEIAQRIIDFISGATFAISGNLQKISNYIFLVTPTNVDILEHHHHHH	not failed
MGVLQRFERRLEGMIEGTFARAFKSELQPVEVASNVQREMDERAAIVAQGRTLVPNDFVVELSASDRERLAVYADNLGQELSKLAREYATEQGYSFVGPVRVRFETADDLQTGRFRVRSAVIRGDTVKDGEIIKPVTDHPRRGSVIPGRPRLLLSPGGAAADGSLTAQGAQQAYELTSEVTLLGRGTDCDLRLVDNGVSRHHAEIRLEGNEAILVDLNSTNGTFVNGQQVQRARLVDGSRISLGRTTMTFRRD	failed
MGVLTTFISQKALVGGYDNTIEPGVVILSGATITCNVSIGQGTFINKSTVISHDVRIGRYCEVSPGAKVLGRAIIGDRTEIGANAVILPDVIVGADCKIGAGAVVTRNIDSHTTVAGVPARSITKSSNNAFKLKSKIRNLLYHIRIADFRKLREYNHYVFGLEHHHHHH	failed
MGVLWNSIQSVLVVVLIMILGFVLRRAGWFDDKFAGTISKFIKNIALPASIFVSVLSRLTRGQLGSFAGYLAYAFLAVIIGYLIAFALVKVMRVRPGRKGIFINAIVNANTIFIGLPLNIALFGDKSMTYFLVYYIVNTVSTWAFGVFLISNDDPTKSKEKTHNKIDWKKVIPMPLVGFLVALIFLLLNIPIMKVSFVSSTLTYVGNLVTPLSLIYIGIVLADAGLKSIRFDRDTVVALVGRFILSPIVMILVLMVAGNLGASFPTLASQTLIVQSATPMLAVLPILANEAHGDVEYATNIVTTSTVLFIVVVPVLMTLIQYI	failed
MGVNSQKSQGEDVSPDSNIETKEGTYVGLADTHTIEVTVDNEPVSLDITEESTSDLDKFNSGDKVTITYEKNDEGQLLLKDIERANLEHHHHHH	failed
MGWFSAPEYWLGRLALERGTAIIYLIAFVAAAQQFRPLIGEHGMLPVPRYLAGQSFWRTPSIFHFRYSDRVFAGVCWLGAVLSAAVVAGAASFVPLWATMLIWLTLWVLYLSIVNVGQAWYSFGWESLLLETGFLMIFLGNERTAPPILTLLLARWLLFRVEFGAGLIKMRGDSCWRSLTCLYYHHETQPMPGPLSWFFHHLPKPLHRIEVAGNHFAQLVVPFGLFTPQPAASIAAAIIVVTQLWLVASGNFSWLNWLTILLACSAIDTSSAAALLPMPAQPALSAPPQWFAGLVVVFTAAVLLLSYWPARNLLSSHQRMNMSFNPFHLVNTYGAFGSICRTRREVVIEGTDESPITEQTVWKAYEFKGKPGDPRRLPRQWAPYHLRLDWLMWFAAISPGYALPWMTPFLNRLLRNDPATLKLLRHNPFPQSPPRYVRAQLYQYRFTTVAELRRDRAWWHRTLIGRYVPPMSLRKVASPPAD	failed
MGWHCVFFQMDLRYCSVQTLARTHQVMRELVQASAFVELNRFFDRLEAQWRQAPPGEFPAYLAAIDGHMLLDQENQGDRALSQVLRAWIDACPRAYHPQVVMGMHCFHRACQVQVDGPRNAARLLAVAQICESATAHLLRAMDRSAHPVAAAIGMLRISAQFHEPGWLLQLFQGEPARFRPSAHADVEVQEAAAPLLVRHGLLPLAELPQSLPRYLGKRVDHENEDPRYYWLRHALIARPGCFEAIQALAVYLLPRWGGSLDAFELLVNGPLCATWDERLRNALRWMAVEGRLKLPQADKVQAVADWQHVFEDWSQRPLRPRERAVVLAWRGALRSRVSGDHAGAMRDFGASLACNADLGAIRAMGVPFRCLAELILRDGMADEKQLLHGAIERLCDGRSHAAACALRAVGHRFGLWALPRSAEQARLWLQRAVSRQCAGQAPGFEVLEVARLLWAANRHEVACYLYERCAELNLPGAALALYELHHGGLANTPAHYLDDEAAGYWLQRAVEAGSRQAKYNLACLRMDGDEDLNERSAMLAVRRLLVDALGNGQTNACARLHLGILLRRFGEAQERSEAVAYLLSLVEHPDPWLAGRASAELGLAWMQGRGTRKQSRFAAIQWVNRAASLQPRDSAIGDIQAQILNSHSRVKTLFTQCGAALFRGTLHASELPPKQAFTHAESLRVKPASDGLRRAHKPRLSGPMQG	failed
MGWVTDWSAQAACRTTDPDELFVQGAAQNRAKAVCTGCPVRTECLADALDNRVEFGVWGGMTERERRALLRRRPTVTSWRRLLETARTEYERGVGIVPLDDDEVYENYAAVG	failed
MGYDPRISVSKWYEKWMLIYVVHSVKATTLSNYVNGFERVREYIGYMRLIEVRPTHILDMIKGLEEEGYARTTVIQSLSVVRQLFKKAYGGKMIPIDPVADIKLEHHHHHH	not failed
MHALYITHPQVKIDPAVPVPEWGLSERGAERAREASRLPWAKALRRIVSSAETKAIETAHMLAETSGAAIEIIEAMHENDRSATGFLPPPEFEKAADWFFAHPEESFQGWERAIDAQARIVEAVKAVLDRHDARQPIAFVGHGGVGTLLKCHIEGRGISRSKDQPAGGGNLFRFSIAEFSLAAASPTCDWTAMETWQG	not failed

Reference: a protein production outcome set (Wang et al. 2014)
